From patent US20100092481A1 (INSTITUTE FOR RESEARCH IN BIOMEDICINE, published 2010) come the findings set out here.

Sequences and labels used below:
B1: 4I22 (antibody, V domains shown)
VH: QVQLVESGGGVVQPGRSLRLSCVASGFTFSSYAMHWVRQAPGKGLEWVAVISYDGDNKFYADSVKGRFRISRDTSKNTLYLEMNSLRAADTAIYYCAREELVGLMPPYYNYGLDVWGQGTTVTVSS
VL: QSVLTQPPSVSAAPGQKVTISCSGSNSNIGNNYVSWYQQLPGRAPKLLIYDNDHRPSGIPDRFSGSKSGTSATLVITGLQTGDEADYYCETWDTSLSAAVVFGGGTKLTVL
notes: human IgG mAb; also called 4I22-biotin
B2: 10F7 (antibody, V domains shown)
VH: EVQLVESGGGLVQPGRSLRLSCTASGFTFGDYAMSWFRQAPGKGLEWVGFIRSKAYGGTTEYAASVKGRFTISRDDSKSIAYLQMNSLKTEDTAVYYCTRASSLLWLLNPQPNFDYWGQGTLVTVSS
VL: SYVLTQPPSVSVAPGQTARITCGGNNIGSNNVHWYQQKPGQAPVLVVYDDSDRPSGIPERFSGSNSGNTATLTISRVEAGDEADYYCQVWDSSSDHPVFGGGTKLTVL
notes: human IgG mAb; also called 10F7-biotin
B3: 4N10 (antibody, V domains shown)
VH: QVQLVQSGAEVKKPGSSVRVSCKASGGTFSSYVIIWVRQAPGQGLEWMGGVIPIFDTVNYAQKFQGRVTITADESTSTAYMELSSLKSEDTAVYYCARGILAYCGGDCYNTPYGMDVWGQGTTVTVSS
VL: DIQMTQSPSILSASVGDRVTITCRASQSISSWLAWYQQKPGKAPKLLIYKASSLEIGVPSRISGSGSGTEFTLTISSLQPDDFATYYCQQYNSSWTFGQGTKVEIK
notes: human IgG mAb; also called 4N10-biotin
B4: 8I21 (antibody, V domains shown)
VH: LVELVESGGGVVQPGRSLRLSCAASGFTFSSDGMHWVRQSPGRGLEWVAFISSDGSTPYYADSVKGRFTISRDNSKNTLYLQMNSLRAEDTAMYFCAKDWALFRWLRTFDHWGQGTLVTVSS
VL: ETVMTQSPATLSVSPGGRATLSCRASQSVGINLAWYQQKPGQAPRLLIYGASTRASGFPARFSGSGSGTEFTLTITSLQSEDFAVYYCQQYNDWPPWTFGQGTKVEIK
notes: human IgG mAb; also called 8I21-biotin
B5: 10P3 (antibody, V domains shown)
VH: EVQLVESGGGLVRPGGSLRLSCAASGFTFHNYRMNWVRQAPGKGLEWVANIKQDGSEKSYVDSVRGRFTTSRDNSKNSLYLQINSLRAEDTAVYYCARGEGYTYGVVYSYSAMDVWGQGTTVIVSS
VL: SYELTQPPSVSVSPGQTARITCSGNVLPNQYASWYQQKPGQAPVLVIYKDTERPSGIPGRFSGSSSGTTVTLTISGVQAEDEADYYCQSADSSGADYVFGTGTKVTVL
notes: human IgG mAb
B6: 3G16 (antibody, V domains shown)
VH: QSALTQPASVSGSPGESITISCTGTISDVGAYNSVSWYQQHSGTAPELIIYDVTNRPAGVSSRFSGSKSGNTASLTISWLQSEDEAEYYCSSYTTSDTYVFGSGTQVTVL
V domain: RAQLVQSAAEMKNPGASVKVSCEASGYTFTGYYVHWMRQAPGQGLEWMGWINPMTGATKSPQKFQGRVTMTRDTSTTATHIELTRLRSDDSAVFFCARGGPTSTRITGKRHFDLWGRGTLITVAS
notes: human IgG mAb; also called 3G16-biotin
B7: 15D8 (antibody, V domains shown)
VH: EVQLVQSGAEVKKPGESLKISCQASGYSFTNYWIAWVRQMPGKGLEWMGIIYPGDSDIKYSPSFRGQVTISADKSISNAFLQWRSLRASDTAMYYCARHAIRGDGFDYWGQGTLVTVSS
VL: SYELTQPPSVSVSPGQTATITCSGDKLGEKYACWYQQKPGQSPVLVMYQDTKRPSGIPERFSGSNSGNTATLTISGTRAMDEADYYCQAWDTNTVIFGGGTKLTVL
notes: human IgG mAb; also called 15D8-biotin
B8: 8L13 (antibody, V domains shown)
VH: QVQLLESGGGVVQPGRSLRLSCAASGFTFSNYGMHWVRQAPGKGLEWVAVIWNDGSKKYYAESVKGRFTISRDNSKNTVYLQMNSLRAEDTAVYYCARDEGVQMVFAMPDYGMDVWGQGTTVTVSS
VL: SYELTQPPSVSVSPGQTASITCSGDKLGDKFACWYQQRPGQSPILVIYQDSKRPSGIPERFSGSNSGNTATLTIRGTQAMDEADYYCQAWDSSTAHYVFGTGTKVTVL
notes: human IgG mAb

A value given as a limit tells only on which side of the number the result lay.

T2 sequence (P16772 whole entry): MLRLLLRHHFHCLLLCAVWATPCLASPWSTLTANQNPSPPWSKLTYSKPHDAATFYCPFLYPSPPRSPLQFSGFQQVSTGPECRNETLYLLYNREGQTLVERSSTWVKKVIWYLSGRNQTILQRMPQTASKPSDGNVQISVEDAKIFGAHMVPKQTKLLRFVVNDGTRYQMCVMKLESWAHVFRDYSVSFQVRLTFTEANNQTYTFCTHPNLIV

For one assay, the target named is T1, hCMV gH, gL, UL128, UL130 and UL131A co-expressed in HEK293T cells (human cytomegalovirus, UniProt P12824 24-743; P16832 31-278; P16837 1-171; P16772 1-214).
T1 construct: whole, on cells; also called gH + gL + UL128 + UL130 + UL131A; gH/gL/UL128-130 complex
The assay can be described thus: cell cross-competition, 20x excess; competitor 2C12-biotin.
As to B1, the “Inhibition of binding (%)” value was found to be 0%.

Regarding B2, the “Inhibition of binding (%)” value came to 0%.

As for B3, the “Inhibition of binding (%)” value was found to be 0%.

As to B4, the “Inhibition of binding (%)” value is 0%.

For B5, the “Inhibition of binding (%)” value was 0%.

With B6, the “Inhibition of binding (%)” value was 0%.

For the molecule B7, the “Inhibition of binding (%)” value turned out to be 0%.

For another assay, the target named is T1, hCMV gH, gL, UL128, UL130 and UL131A …. The assay can be described thus: cell cross-competition, 20x excess; competitor 6G4-biotin.
For the molecule B2, the “Inhibition of binding (%)” value was determined as 0%.

As for B3, the “Inhibition of binding (%)” value was 0%.

In the case of B4, the “Inhibition of binding (%)” value is 0%.

In the case of B5, the “Inhibition of binding (%)” value is 0%.

B6: the “Inhibition of binding (%)” value was 0%.

With B7, the “Inhibition of binding (%)” value is 0%.

For another assay the target is unchanged. Put plainly: cell cross-competition, 20x excess; competitor 1F11-biotin.
As to B1, the “Inhibition of binding (%)” value turned out to be 100%.

For the molecule B2, the “Inhibition of binding (%)” value worked out at 100%.

As for B3, the “Inhibition of binding (%)” value came to 0%.

Take B4: the “Inhibition of binding (%)” value was 0%.

As to B8, the “Inhibition of binding (%)” value amounted to 100%.

With B5, the “Inhibition of binding (%)” value is 0%.

As for B7, the “Inhibition of binding (%)” value stood at 0%.

A further assay shares this target. The assay can be described thus: cell cross-competition, 20x excess; competitor 10F7-biotin.
Turning to B1, the “Inhibition of binding (%)” value worked out at 100%.

Take B2: the “Inhibition of binding (%)” value was 100%.

Turning to B3, the “Inhibition of binding (%)” value turned out to be 0%.

Regarding B8, the “Inhibition of binding (%)” value is 100%.

As for B7, the “Inhibition of binding (%)” value was 0%.

For another assay the target is unchanged. Put plainly: cell cross-competition, 20x excess; competitor 8J16-biotin.
With B1, the “Inhibition of binding (%)” value was found to be 0%.

The target is the same in a further assay. The assay can be described thus: cell cross-competition, 20x excess; competitor 5A2-biotin.
As for B1, the “Inhibition of binding (%)” value came to 0%.

On to B2, for which the “Inhibition of binding (%)” value was determined as 0%.

For B3, the “Inhibition of binding (%)” value stood at 100%.

On to B4, for which the “Inhibition of binding (%)” value was determined as 95%.

For the molecule B7, the “Inhibition of binding (%)” value came to 0%.

A further assay has as its target T2, hCMV UL130 and UL131A co-expressed in HEK293T cells (human cytomegalovirus, UniProt P16772 1-214). The assay can be described thus: cell-based or functional assay.
As to B1, the “90% Neutralization ARPE (hCMV VR1814)” value turned out to be 0.0015 µg/mL and the “90% Neutralization MRC-9 (hCMV VR1814)” value is greater than 10 µg/mL.

With B2, the “90% Neutralization ARPE (hCMV VR1814)” value was determined as 0.002 µg/mL and the “90% Neutralization MRC-9 (hCMV VR1814)” value was greater than 10 µg/mL.

Turning to B3, the “90% Neutralization ARPE (hCMV VR1814)” value came to 0.02 µg/mL and the “90% Neutralization MRC-9 (hCMV VR1814)” value was greater than 10 µg/mL.

Turning to B8, the “90% Neutralization ARPE (hCMV VR1814)” value was found to be 0.001 µg/mL and the “90% Neutralization MRC-9 (hCMV VR1814)” value is greater than 10 µg/mL.

B5: the “90% Neutralization ARPE (hCMV VR1814)” value came out at 0.0025 µg/mL and the “90% Neutralization MRC-9 (hCMV VR1814)” value is greater than 10 µg/mL.

In a further assay the target is T1, hCMV gH, gL, UL128, UL130 and UL131A …. The assay can be described thus: cell cross-competition, 20x excess; competitor 15D8-biotin.
Regarding B2, the “Inhibition of binding (%)” value was found to be 0%.

Take B3: the “Inhibition of binding (%)” value amounted to 0%.

B4: the “Inhibition of binding (%)” value was 0%.

Turning to B5, the “Inhibition of binding (%)” value is 0%.

Regarding B7, the “Inhibition of binding (%)” value was determined as 100%.

The target is the same in a further assay. The assay can be described thus: cell cross-competition, 20x excess; competitor 4N10-biotin.
Consider B1, for which the “Inhibition of binding (%)” value was 0%.

With B2, the “Inhibition of binding (%)” value came out at 0%.

On to B3, for which the “Inhibition of binding (%)” value came to 100%.

For B4, the “Inhibition of binding (%)” value stood at 90%.

In the case of B7, the “Inhibition of binding (%)” value amounted to 0%.

For the next assay the target is unchanged. The assay can be described thus: cell cross-competition, 20x excess; competitor 4I22-biotin.
Consider B1, for which the “Inhibition of binding (%)” value came out at 100%.

Regarding B2, the “Inhibition of binding (%)” value was found to be 100%.

Regarding B3, the “Inhibition of binding (%)” value stood at 0%.

Consider B4, for which the “Inhibition of binding (%)” value was determined as 0%.

Regarding B5, the “Inhibition of binding (%)” value is 0%.

On to B7, for which the “Inhibition of binding (%)” value is 0%.

The target is the same in a further assay. Put plainly: cell cross-competition, 20x excess; competitor 8I21-biotin.
For B1, the “Inhibition of binding (%)” value was found to be 0%.

As for B2, the “Inhibition of binding (%)” value is 0%.

Turning to B3, the “Inhibition of binding (%)” value was found to be 90%.

Regarding B4, the “Inhibition of binding (%)” value is 100%.

In the case of B5, the “Inhibition of binding (%)” value stood at 0%.

Regarding B6, the “Inhibition of binding (%)” value is 0%.

B7: the “Inhibition of binding (%)” value came out at 0%.

For a further assay the target is unchanged. The assay can be described thus: cell cross-competition, 20x excess; competitor 2F4-biotin.
As to B1, the “Inhibition of binding (%)” value was 100%.

On to B2, for which the “Inhibition of binding (%)” value was 100%.

Turning to B3, the “Inhibition of binding (%)” value was determined as 0%.

As for B4, the “Inhibition of binding (%)” value is 0%.

In the case of B5, the “Inhibition of binding (%)” value was 0%.

Take B7: the “Inhibition of binding (%)” value stood at 0%.

The next assay has as its target T2, hCMV UL130 and UL131A co-expressed in …. The assay can be described thus: cell-based or functional assay. This is another data set of the same source.
As for B1, the “50% Neutralization ARPE (hCMV VR1814)” value was less than 0.01 µg/mL and the “50% Neutralization MRC-9 (hCMV VR1814)” value is greater than 2 µg/mL.

For the molecule B2, the “50% Neutralization ARPE (hCMV VR1814)” value is less than 0.01 µg/mL and the “50% Neutralization MRC-9 (hCMV VR1814)” value is no more than 2 µg/mL.

In the case of B3, the “50% Neutralization ARPE (hCMV VR1814)” value was less than 0.001 µg/mL and the “50% Neutralization MRC-9 (hCMV VR1814)” value was no more than 2 µg/mL.

For the molecule B8, the “50% Neutralization ARPE (hCMV VR1814)” value is less than 0.01 µg/mL and the “50% Neutralization MRC-9 (hCMV VR1814)” value was greater than 2 µg/mL.

As for B5, the “50% Neutralization ARPE (hCMV VR1814)” value was less than 0.001 µg/mL and the “50% Neutralization MRC-9 (hCMV VR1814)” value is greater than 2 µg/mL.
